Results from PMC4772976 (EMBO Reports, 2016).

Target: His-Ub (UniProt P0CG48 1-76)
Experiment: pull-down

B1: GST-NAT10 RFL (RING finger-like, residues 456-558) (domain or fragment)
chain: SARTLYEVSLQESIRYAPGDAVEKWLNDLLCLDCLNITRIVSGCPLPEACELYYVNRDTLFCYHKASEVFLQRLMALYVASHYKNSPNDLQMLSDAPAHHLFC
- binding result: binds
